Data on 34 sequences can be found in the supplement of paper PMC7877785.

This series is described as follows: self-splicing fitness, log relative to wild type (ln ratio); higher = more splicing; Tetrahymena group I intron in knt gene, E. coli kanamycin selection, DiMSum; sequences stand for … in CUCUCU…GGAGGGAAAAGUUAUCAGGCAUGCACCUGGUAGCUAGUCUUUAAACCAAUAGAUUGCAUCGGUUUAAAAGGCAAGACCGUCAAAUUGCGGGAAAGGGGUCAACAGCCGUUCAGUACCAAGUCUCAGGGGAAACUUUGAGAUGGCCUUGCAAAGGGUAUGGUAAUAAGCUGACGGACAUGGUCCUAACCACGCAGCCAAGUCCUAAGUCAACAGAUCUUCUGUUGAUAUGGAUGCAGUUCACAGACUAAAUGUCGGUCGGGGAAGAUGUAUUCUUCUCAUAAGAUAUAGUCGGACCUCUCCUUAAUGGGAGCUAGCGGAUGAAGUGAUGCAACACUGGAGCCGCUGGGAACUAAUUUGUAUGCGAAAGUAUAUUGAUUAGUUUUGGAGUACUCGUGGUCG
An outline of the steps: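 Colonies from six replicate transformations of E. coli BL21(DE3) were pooled and amplicon-sequenced on an Illumina HiSeq 2500. The library placed an intron with all eight P1ex-region nucleotides randomised inside the knt kanamycin-resistance gene on pET-22b(+), and cells grew overnight at 37°C or 30°C on LB agar with or without 25 μg/mL kanamycin (plus 100 μg/mL carbenicillin, 50 μM IPTG, 0.2% rhamnose). Fitness is the DiMSum error-weighted combination of wild-type-normalised replicate fold changes, kanamycin versus none.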

± gives the uncertainty stated by the source.

For the sequence AUCCAGCAAUAUUACGGCUA, the “self-splicing fitness (ln)” value (30 °C) was -0.15 ± 0.092 and the “self-splicing fitness (ln)” value (37 °C) is -0.19 ± 0.08.
On the same counts, the results for AUCCAGCAAUAUUACGGGCU are -3.07 ± 0.16 and -2.64 ± 0.17.
For AUCCAGCAAUAUUACGGUUU, the “self-splicing fitness (ln)” value runs as follows: (30 °C) -1.04 ± 0.05; (37 °C) -0.324 ± 0.068.
For AUCCAGCAAUAUUACGUAGC the same measures were -2.3 ± 0.08 and -1.78 ± 0.11.
Regarding AUCCAGCAAUAUUACGUGCU, the “self-splicing fitness (ln)” value is, setting by setting: (30 °C) -2.83 ± 0.17; (37 °C) -2.88 ± 0.31.
In the case of AUCCAGCAAUAUUACGUUAG, the “self-splicing fitness (ln)” value by setting is: (30 °C) -3.22 ± 0.17; (37 °C) -3.56 ± 0.35.
On to AUCCAGCAAUAUUACGUUCC, for which the “self-splicing fitness (ln)” value is -1.19 ± 0.13 (30 °C) and -0.575 ± 0.25 (37 °C).
On the same counts, the results for AUCCAGCAAUAUUACGUUGA are -1.6 ± 0.077 and -0.866 ± 0.087.
On the same counts, the results for AUCGAGCAAUAUUACGAAAG are -2.41 ± 0.13 and -0.783 ± 0.14.
Take AUCGAGCAAUAUUACGAACG: the “self-splicing fitness (ln)” value by setting is: (30 °C) -2.49 ± 0.22; (37 °C) -1.65 ± 0.33.
For the sequence AUCGAGCAAUAUUACGACAA, the “self-splicing fitness (ln)” value reads like this: (30 °C) -2.78 ± 0.18; (37 °C) -2.2 ± 0.18.
On the same counts, the results for AUCGAGCAAUAUUACGACAU are -0.347 ± 0.013 and 0.0643 ± 0.033.
AUCGAGCAAUAUUACGAGGC: under “37 °C”, the “self-splicing fitness (ln)” value was -1.13 ± 0.28.
Take AUCGAGCAAUAUUACGCAGA: the “self-splicing fitness (ln)” value is, setting by setting: (30 °C) -3.09 ± 0.18; (37 °C) -2.46 ± 0.16.
For the sequence AUCGAGCAAUAUUACGCCAU, the “self-splicing fitness (ln)” value runs as follows: (30 °C) -2.34 ± 0.31; (37 °C) -2.79 ± 0.3.
Turning to AUCGAGCAAUAUUACGCCUG, the “self-splicing fitness (ln)” value reads like this: (30 °C) -3.45 ± 0.36; (37 °C) -1.78 ± 0.22.
Turning to AUCGAGCAAUAUUACGCUAC, the “self-splicing fitness (ln)” value (37 °C) is -1.06 ± 0.29.
Turning to AUCGAGCAAUAUUACGCUAG, the “self-splicing fitness (ln)” value is, setting by setting: (30 °C) -4.43 ± 0.46; (37 °C) -2.64 ± 0.33.
On the same counts, the results for AUCGAGCAAUAUUACGGACU are -0.916 ± 0.16 and -0.737 ± 0.19.
With AUCGAGCAAUAUUACGGCAA, the “self-splicing fitness (ln)” value (30 °C) is -2.19 ± 0.15 and the “self-splicing fitness (ln)” value (37 °C) is -2.06 ± 0.18.
Regarding AUCGAGCAAUAUUACGGCUA, the “self-splicing fitness (ln)” value reads like this: (30 °C) -1.22 ± 0.12; (37 °C) -1.28 ± 0.12.
For AUCGAGCAAUAUUACGGGUA, the “self-splicing fitness (ln)” value runs as follows: (30 °C) -2.85 ± 0.16; (37 °C) -2.15 ± 0.14.
For AUCGAGCAAUAUUACGGGUG the same measures were -3.28 ± 0.14 and -1.89 ± 0.12.
AUCGAGCAAUAUUACGUAGC: the “self-splicing fitness (ln)” value was -4.41 ± 0.42 (30 °C) and -1.79 ± 0.26 (37 °C).
Turning to AUCGAGCAAUAUUACGUAGG, the “self-splicing fitness (ln)” value was -3.82 ± 0.39 (30 °C) and -2.04 ± 0.2 (37 °C).
On the same counts, the results for AUCGAGCAAUAUUACGUCCG are -3.17 ± 0.31 and -2.94 ± 0.44.
For AUCGAGCAAUAUUACGUGCC the same measures were -2.52 ± 0.2 and -2.22 ± 0.32.
On the same counts, the results for AUCGAGCAAUAUUACGUUAA are -3.73 ± 0.27 and -2.48 ± 0.29.
As for AUCUAGCAAUAUUACGAAAG, the “self-splicing fitness (ln)” value (30 °C) is -3.62 ± 0.27 and the “self-splicing fitness (ln)” value (37 °C) was -2.15 ± 0.24.
On the same counts, the results for AUCUAGCAAUAUUACGAAAU are -1.81 ± 0.11 and -0.899 ± 0.11.
For the sequence AUCUAGCAAUAUUACGAACU, the “self-splicing fitness (ln)” value runs as follows: (30 °C) -0.13 ± 0.12; (37 °C) 0.27 ± 0.12.
Take AUCUAGCAAUAUUACGACUU: the “self-splicing fitness (ln)” value is, setting by setting: (30 °C) -0.1 ± 0.074; (37 °C) 0.24 ± 0.092.
On the same counts, the results for AUCUAGCAAUAUUACGAGAC are -4.67 ± 0.42 and -3.22 ± 0.3.
On the same counts, the results for AUCUAGCAAUAUUACGAGCG are -1.87 ± 0.12 and -1.25 ± 0.15.
